The supplement of paper PMC10567573
± gives the standard deviation.

Assay: protein stability index of a GFP-peptide fusion (GPS, HEK-293T) (PSI 1-6); higher = more stable
Settings: c terminus: a fixed tail appended
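Note: 24-mer peptide tiles fused after GFP, lentivirally expressed, FACS-sorted into six equal bins by GFP/DsRed ratio, decoded by Illumina sequencing, PSI is the read-weighted mean bin number.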

KVQFNLQFTKPNASLGDVQSGATI [SASS6] showed a protein stability index (treatment: DMSO) of 2.45 ± 0.37 and a protein stability index (treatment: MLN4924 1 uM, 8 h) of 2.66 ± 0.45.
Work on RLKKEEEDRIVTQNRVFAYLCKRV [CEP70] yielded a protein stability index (treatment: DMSO) of 2.55 ± 0.31 and a protein stability index (treatment: MLN4924 1 uM, 8 h) of 2.86 ± 0.43.
IIELLEKDGMAFQEALDPGPFDQG [ELF3] gave a protein stability index (treatment: DMSO) of 3.58 ± 0.39 and a protein stability index (treatment: MLN4924 1 uM, 8 h) of 3.44 ± 0.32.
With PTTGRVYESDSSNHCMLSPSSSGH [C18orf25] the protein stability index (treatment: DMSO) was 4.24 ± 0.24 and the protein stability index (treatment: MLN4924 1 uM, 8 h) was 4.52 ± 0.052.
In the case of QLLFVIFLLLYLFTLGTNAIIIST [OR10K2], the protein stability index (treatment: DMSO) is reported as 3.18 ± 0.37 and the protein stability index (treatment: MLN4924 1 uM, 8 h) is reported as 3.19 ± 0.23.
Work on HCLHSAGHSQPDGAYSSASSFSRP [DLX1] yielded a protein stability index (treatment: DMSO) of 3.53 ± 0.27 and a protein stability index (treatment: MLN4924 1 uM, 8 h) of 3.61 ± 0.17.
Sequence DLSGIQTSDAAFLTQWKDSLVSLV [ZER1] has a protein stability index (treatment: DMSO) of 2.37 ± 0.33 and a protein stability index (treatment: MLN4924 1 uM, 8 h) of 2.49 ± 0.26.
Sequence WKDLTLSTRPEEGCSLHEEDTQRH [TCAP] has a protein stability index (treatment: DMSO) of 5.08 ± 0.25 and a protein stability index (treatment: MLN4924 1 uM, 8 h) of 5.13 ± 0.28.
In the case of ADSFESSDSLLQSWNSQSSLLDVQ [ETS2], the protein stability index (treatment: DMSO) is reported as 4.38 ± 0.12 and the protein stability index (treatment: MLN4924 1 uM, 8 h) is reported as 4.56 ± 0.12.
QGEAFQRALESELQQLRARLQGLE [PBXIP1] showed a protein stability index (treatment: DMSO) of 3.1 ± 0.17 and a protein stability index (treatment: MLN4924 1 uM, 8 h) of 3.23 ± 0.28.
DWFTSYVKNVVSGGFPIIRDQIFR [FBXO3] gave a protein stability index (treatment: DMSO) of 2.61 ± 0.34 and a protein stability index (treatment: MLN4924 1 uM, 8 h) of 2.41 ± 0.39.
KHPQPAPAVTPDPWGVQGGQESEV [PKD2L1] showed a protein stability index (treatment: DMSO) of 5.24 ± 0.22 and a protein stability index (treatment: MLN4924 1 uM, 8 h) of 4.97 ± 0.21.
TRQKKNLPDSPLRFDGLPAVLGFP [TRIM15] gave a protein stability index (treatment: DMSO) of 2.85 ± 0.3 and a protein stability index (treatment: MLN4924 1 uM, 8 h) of 2.92 ± 0.3.
NKILVPLVLLRQMLLELTRRGQEP [BCL2L13] showed a protein stability index (treatment: DMSO) of 2.64 ± 1.6 and a protein stability index (treatment: MLN4924 1 uM, 8 h) of 2.92 ± 0.92.
Work on SQEESEEGEEDATSEVDKRRTRPR [CHGB] yielded a protein stability index (treatment: DMSO) of 5.57 ± 0.33 and a protein stability index (treatment: MLN4924 1 uM, 8 h) of 5.59 ± 0.2.
RETVLIETQLKACASFIRTRLLLQ [C8orf76] gave a protein stability index (treatment: DMSO) of 2.88 ± 0.57 and a protein stability index (treatment: MLN4924 1 uM, 8 h) of 2.9 ± 0.71.
Work on KQLEFGLKEAPVQDQGYKTLRLRE [ZNF8] yielded a protein stability index (treatment: DMSO) of 4.3 ± 0.31 and a protein stability index (treatment: MLN4924 1 uM, 8 h) of 4.27 ± 0.22.
For MENIGAIQVLPKLSSSIIHEIDSI [KCNAB2], the protein stability index (treatment: DMSO) was 3.53 ± 0.34 and the protein stability index (treatment: MLN4924 1 uM, 8 h) was 3.51 ± 0.29.
ELFYRVNYIGTKNVIETCKEAGVQ [NSDHL] gave a protein stability index (treatment: DMSO) of 2.14 ± 0.21 and a protein stability index (treatment: MLN4924 1 uM, 8 h) of 2.08 ± 0.54.
PLVLTEVLFNEKIREQIKKYRRHF [EIF5] showed a protein stability index (treatment: DMSO) of 2.31 ± 0.35 and a protein stability index (treatment: MLN4924 1 uM, 8 h) of 2.28 ± 0.33.
In the case of AQTTSEAAMEGATLDQTTSEEAPG [HDAC6], the protein stability index (treatment: DMSO) is reported as 5.64 ± 0.28 and the protein stability index (treatment: MLN4924 1 uM, 8 h) is reported as 5.54 ± 0.24.
In the case of SLIFSLKNEVGGLIKALKIFQEKH [TPH1], the protein stability index (treatment: DMSO) is reported as 2.07 ± 0.23 and the protein stability index (treatment: MLN4924 1 uM, 8 h) is reported as 2.75 ± 0.82.
Sequence HKARTRPKARKQGVSPADMYRWKL [ADAMTSL2] has a protein stability index (treatment: DMSO) of 3.32 ± 0.25 and a protein stability index (treatment: MLN4924 1 uM, 8 h) of 3.31 ± 0.42.
Sequence GRLELKPLLLRLPRICQRNLMSLL [FANCE] has a protein stability index (treatment: DMSO) of 2.63 ± 0.33 and a protein stability index (treatment: MLN4924 1 uM, 8 h) of 2.7 ± 0.23.
Sequence KDKLGVWVYKNKLIFFGGYGYLPE [KLHDC2] has a protein stability index (treatment: DMSO) of 2.25 ± 0.59 and a protein stability index (treatment: MLN4924 1 uM, 8 h) of 3.11 ± 1.6.
Work on EEEEEEEGSGHSTGEDSAFQEPDS [WEE1] yielded a protein stability index (treatment: DMSO) of 5.7 ± 0.16 and a protein stability index (treatment: MLN4924 1 uM, 8 h) of 5.62 ± 0.11.
CRLAKGENGYGFHLNAIRGLPGSF [PDZK1] gave a protein stability index (treatment: DMSO) of 2.08 ± 0.69 and a protein stability index (treatment: MLN4924 1 uM, 8 h) of 2.07 ± 0.24.
Work on LPAGAGAPKAGLEEAPAVTAGLKI [TNFSF13B] yielded a protein stability index (treatment: DMSO) of 4.65 ± 0.3 and a protein stability index (treatment: MLN4924 1 uM, 8 h) of 4.65 ± 0.15.
For THMYLQSDDEMELEETEPPLEPED [P3H4], the protein stability index (treatment: DMSO) was 5.4 ± 0.2 and the protein stability index (treatment: MLN4924 1 uM, 8 h) was 5.38 ± 0.29.
YRDLAGGTGRSAKEQVLRKGTENL [FCHSD1] showed a protein stability index (treatment: DMSO) of 4.16 ± 0.18 and a protein stability index (treatment: MLN4924 1 uM, 8 h) of 4.2 ± 0.33.
With NIADIEEKRGFTSHFVFVIEVKTK [NCF4] the protein stability index (treatment: DMSO) was 2.47 ± 0.74 and the protein stability index (treatment: MLN4924 1 uM, 8 h) was 2.62 ± 0.44.
Sequence DRTSLATFHEGKHNISHMSMDIAR [WDFY1] has a protein stability index (treatment: DMSO) of 3.54 ± 0.24 and a protein stability index (treatment: MLN4924 1 uM, 8 h) of 3.56 ± 0.33.
Sequence GRLILSTIRLRPRQVLCEKCKSTL [PWWP2B] has a protein stability index (treatment: DMSO) of 2.2 ± 0.4 and a protein stability index (treatment: MLN4924 1 uM, 8 h) of 2.56 ± 0.55.
Sequence FVIGHLKGAPASWWNHMHFQHHAK [FADS1] has a protein stability index (treatment: DMSO) of 2.65 ± 0.89 and a protein stability index (treatment: MLN4924 1 uM, 8 h) of 2.24 ± 0.47.
With TQQTGTVRFDGYVIDGATALWCAA [FEM1B] the protein stability index (treatment: DMSO) was 2.3 ± 0.11 and the protein stability index (treatment: MLN4924 1 uM, 8 h) was 2.22 ± 0.34.
Sequence VRKKRFRKTQKKVPDVKEMEKSSF [TAF7L] has a protein stability index (treatment: DMSO) of 4.1 ± 0.11 and a protein stability index (treatment: MLN4924 1 uM, 8 h) of 4.37 ± 0.19.
Sequence EQSSCTMTPDIHELVENIKSVLKS [FAM189A2] has a protein stability index (treatment: DMSO) of 2.19 ± 0.29 and a protein stability index (treatment: MLN4924 1 uM, 8 h) of 2.4 ± 0.37.
In the case of SLKEEHRAYDLLRAASENSQDALR [IKZF1], the protein stability index (treatment: DMSO) is reported as 4.32 ± 0.52 and the protein stability index (treatment: MLN4924 1 uM, 8 h) is reported as 4.36 ± 0.34.
In the case of EEIDVDGKFIRLKNTSEQDQPMGG [LMNB1], the protein stability index (treatment: DMSO) is reported as 5.15 ± 0.46 and the protein stability index (treatment: MLN4924 1 uM, 8 h) is reported as 5.47 ± 0.43.
SKYQLSEAQLSLIRDIRRRGKNKM [NFE2L1] gave a protein stability index (treatment: DMSO) of 3.69 ± 0.28 and a protein stability index (treatment: MLN4924 1 uM, 8 h) of 3.9 ± 0.54.
Sequence LEHVRALIKKYSDHLENVSKLVES [TRIM55] has a protein stability index (treatment: DMSO) of 3.02 ± 0.28 and a protein stability index (treatment: MLN4924 1 uM, 8 h) of 3.1 ± 0.17.
ATTISTSEDGSYGTDVTRCICGFT [KMT2E] gave a protein stability index (treatment: DMSO) of 3.46 ± 0.21 and a protein stability index (treatment: MLN4924 1 uM, 8 h) of 3.6 ± 0.39.
Work on QNECQVLKLLNHPNVIEYYENFLE [NEK8] yielded a protein stability index (treatment: DMSO) of 2.56 ± 0.12 and a protein stability index (treatment: MLN4924 1 uM, 8 h) of 2.67 ± 0.27.
EERLERCMSIVTSMTAGVSEREAN [INTS3] showed a protein stability index (treatment: DMSO) of 4.84 ± 0.35 and a protein stability index (treatment: MLN4924 1 uM, 8 h) of 4.78 ± 0.29.
